Assay results from the DeepSol protein solubility set.

assay: soluble on expression in E. coli; label from the status in PepcDB or PDB records

| Sequence | soluble on expression in E. coli |
| --- | --- |
| MAKWLRDYLSFGGRRPPPQPPTPDYTESDILRAYRAQKNLDFEDPYEDAESRLEPDPAGPGDSKNPGDAKYGSPKHRLIKVEAADMARAKALLGGPGEELEADTEYLDPFDAQPHPAPPDDGYMEPYDAQWVMSELPGRGVQLYDTPYEEQDPETADGPPSGQKPRQSRMPQEDERPADEYDQPWEWKKDHISRAFAVQFDSPEWERTPGSAKELRRPPPRSPQPAERVDPALPLEKQPWFHGPLNRADAESLLSLCKEGSYLVRLSETNPQDCSLSLRSSQGFLHLKFARTRENQVVLGQHSGPFPSVPELVLHYSSRPLPVQGAEHLALLYPVVTQTP | soluble |
| MALDVKKYPFIKSLDDELKKYGGGITLTDLLLNSTTLIDQAKDRIQKTKSGDELPHYVSYNEPVLVFYTTLLSLAILNDVKLIRRYAYAEAKQFRSLLHTENEENLLEISKLLDLKINRCDPIKFYLEKKRRIIQKEFCVHFIDYLKYTKDLKEDWKLSGQILHKGYVYLDKNQLIGLIAESIKSKIVEMIRPLNLKEIPEKLKSLIERRGI | soluble |
| MALIEYNPPLEPYLDIIYQDNHLCVVNKPSGLLSVPGNQPQYYDSAMSRVKEKFGFCEPAHRLDMATSGIIVFALSKAADRELKRQFREREPKKHYQAIVWGHLENDYGEVNLPMICDWENRPRQRLDFVLGKRAVTKFEVLARLPNNSTRVKLTPVTGRSHQLRLHMLALGHPILGDKFYSHPQAKVMSPRLCLHAEELTITHPITGETMTFNAKSDFLEHHHHHH | not soluble |
| MALLVAKAYKIIDRIKDAESRPDRLTNKDAGDVYRLFMGFPAAGVAASWHALTSDQRVGEVSTTGLALLRELFAGPRSPGANMAVAALAGDVPEDRVRQVCRAYVNRLSA | not soluble |
| MALNFLSYDDDFCGYCGAILELPAQAPATVSCKVCSTRWAVKERVDQVVSRVEKIYERTVADTDGIENDESADAVVDHICTKCGHSKASYSTMQTRSADEGQTVFYTCLKCKKKDIEYS | not soluble |
| MALNVIKISRVSLVTNSVEPLVLPLTFFDLLWLKLNPIERVTFYKLTESSRDSFFSSILPKLEQSLSLVLSHFLPLSGHLKWNPQDPKPHIVIFPKDTVSLTVVESEADFSYISSKELRLETELRPLVPELQVSSDSASLLSLQITLFPNQGFSIGTTVHHVVMDGKTASKFHKSWAHICKHGTTPQDFDLPTVLDRTVINVPAGLEQKIFQLSSYISEEKDYARTLTLPPAKEIDNDVVRVTLELTEVDIEKLKERAKNESTRSDLHLSTFVVSYAYVLTCMVKSCGGDANRPVRFMYAADFRNRLDPPVPLTYFGNCVLPIDFNGYKATTFLGKDGYVNGVEILSDSVRGLGSRNIESIWEVYEDGTKNMKLDTQNVTVTGSNQFGIYGSDFGWGRPVKTDVMSLYKNNEFSMSARRDEIGGLEIGISLKKCEMNVFLSLFTSDFDIYK | soluble |
| MALQGISVMELSGLAPGPFCAMVLADFGARVVRVDRPGSRYDVSRLGRGKRSLVLDLKQPRGAAVLRRLCKRSDVLLEPFRRGVMEKLQLGPEILQRENPRLIYARLSGFGQSGSFCRLAGHDINYLALSGGRNSIFKFFSVENSEIESVGSTSRTEHVGWWSTFLYDLQDSRWGIHGCWSNRTPVLRAADQRTWTKV | not soluble |
| MALQLGRLSSGPCWLVARGGCGGPRAWSQCGGGGLRAWSQRSAAGRVCRPPGPAGTEQSRGLGHGSTSRGGPWVGTGLAAALAGLVGLATAAFGHVQRAEMLPKTSGTRATSLGRPEEEEDELAHRCSSFMAPPVTDLGELRRRPGDMKTKMELLILETQAQVCQALAQVDGGANFSVDRWERKEGGGGISCVLQDGCVFEKAGVSISVVHGNLSEEAAKQMRSRGKVLKTKDGKLPFCAMGVSSVIHPKNPHAPTIHFNYRYFEVEEADGNKQWWFGGGCDLTPTYLNQEDAVHFHRTLKEACDQHGPDLYPKFKKWCDDYFFIAHRGERRGIGGIFFDDLDSPSKEEVFRFVQSCARAVVPSYIPLVKKHCDDSFTPQEKLWQQLRRGRYVEFNLLYDRGTKFGLFTPGSRIESILMSLPLTARWEYMHSPSENSKEAEILEVLRHPRDWVR | not soluble |
| MALRDSFNKIISYFDTDEVSEVEEPAVASVKRQQDAAQPASQQQKAQSHQYHQSASRPSQQQVQSGQNRRSGEENIHSLPTRRQSHNQQPAQEKTTIALKLPRKYEDAEEIVDLLIRNECVLIDFQYMLEAQARRCLDFIDGASKVLAGNLQKVGASMYLLTPINVIVDAEEMTLAANGQDVSFNYDMKRRLEHHHHHH | not soluble |
| MAMGQLQHGIDDENATKQTQKYRDAEQSKKTAYDQAVAAAKAILNKQTGSNSDKAAVDRALQQVTSTKDALNGDAKLAEAKAAARQNLGTLNHITNAQRTALEGQINQATTVDGVNTVKTNANTLDGAMNSLQGAINDKDATLRNQNYLDADESKRNAYTQAVTAAEGILNKQTGGNTSKADVDNALNAVTRAKAALNGAENLRNAKTSATNTINGLPNLTQLQKDNLKHQVEQAQNVVGVNGVKDKGNLEHHHHHH | soluble |
| MAMQMQLEANADTSVEEESFGPQPISRLEQCGINANDVKKLEEAGFHTVEAVAYAPKKELINIKGISEAKADKILAEAAKLVPMGFTTATEFHQRRSEIIQITTGSKELDKLLQGGIETGSITEMFGEFRTGKTQICHTLAVTCQLPIDRGGGEGKAMYIDTEGTFRPERLLAVAERYGLSGSDVLDNVAYARAFNTDHQTQLLYQASAMMVESRYALLIVDSATALYRTDYSGRGELSARQMHLARFLRMLLRLADEFGVAVVITNQVVAQVDGAAMFAADPKKPIGGNIIAHASTTRLYLRKGRGETRICKIYDSPCLPEAEAMFAINADGVGDAKD | soluble |
| MANAFKLFPTRDTNYLEATYVHHDLNVVWLKLSFRVPLETLFLEYRQQGGHTLILSRQVYENILVRDTDFMSVFCNDLQAILEDSPAIERFFVELSPYYWGKEDFDKRMSAWSQSVQLYDWLVTFLDDRQEELKLKLVSLCEFTSLQILSIIRLISSNYLETIKLTFRKNDEQLESNFQEILKTKQWNNAKAAYVKGCCTPIASILHFQKATVQLDILSIDDLRVLKELATKGTLNIFKIRFHSIADSITDNSLIELFGESKHSFLWEWSINGIDNREIECIYSKTYKEFSIFYSEEYQKLGHGVPENNKSEETTLCTSEHSSKVLQNALLMKNILNHLERKDICRLQRTSRKIHESIANLKPDSKIVALEISLVKIECVTVNVFHKMGVKKLIYENVGLSNVDPTAKLITAMERHNQGVFGEEICFAHGRWQLGFSLSAFAVDLIRNLKDQKSEIQELWLDFSLTQARLRERPDKEHIKILVLATRQLLDVISSAGKTLDRQIPVKKLSIQALGHKPLLQILPLLNPVTLKTIEIQKSEVIMAKKPLNLNKVVQLDQWKNAEEVLIKSITAPGQIQHFLHFVVAEVNLESISMGDVLELKNVFQQNSNKLKKFKAFFENSDIDERIYDDQFLGFPYKRPENPSTNLPSVWFVRIPTSTVLHILYYKNRKMISFSRVSNSSVPSDALM | not soluble |
| MANPIKIGIGGPVGAGKTQLIEKVVKRLSKEMSIGVITNDIYTKEDEKILVNSGVLPESRIIGVETGGCPHTAIREDASMNFAAIDELLERHDDIELIFIESGGDNLAATFSPELVDFSIYIIDVAQGEKIPRKGGQGMIKSDFFVINKTDLAPYVGASLEQMAEDTKVFRGKRPFTFTNLKTDEGLDEVIDWIERDTLLKGLS | not soluble |
| MANSHVNTLNPGDPFRDWLVEEVVANRIRDKKCCVNVFKYNSSHTVCRYQFKGEHFSVMAKFFAEPTGKLKAYNPYKGMMNEYRNLKKAASIINVAKPLAVRKDFNCVLVTEHIPGKSLGWYLKREEDLYGRLSAVAHMLRNLHDNTKSSYNKENEFRNFHDVLDHLKLDYGTRETFNKLLGEWWYSSLLDRDHGCMVHRDVTPSNYIFCKEKPYAIDFESSWFEAHPIRDLGVLTAELKNEFELHKGGGWKAEPYIGNFLWEYSRGEKDFYSITGILPFFMSIGLLRSARLHQGDYRNYLINEARECLGAIYRGNLEHHHHHH | not soluble |
| MANSMATLSRRLYRSLLSNPRISQASMSFCTNNITSPEDSDFDELESPIEPKASDPVSRFSGEERVMEERPLENGLDSGIFKAILVGQVGQLPLQKKLKSGRTVTLFSVGTGGIRNNRRPLINEDPREYASRSAVQWHRVSVYPERLADLVLKNVEPGTVIYLEGNLETKIFTDPVTGLVRRIREVAIRRNGRVVFLGKAGDMQQPSSAELRGVGYY | soluble |
| MANVSLNKVDKQALVHQPNLLRECFALLVNAHYQTSPNDLLHLLRDDNSSVYLAMDKQNIIGVILTVEEGGLDDELIEAIQLGQRRPKGHLTPITIINQLGLVKVGKLITSRVMRIAVHPDLQGSGIGKRMLTLLEESVGAHVDYLSTSFGATDELIQFWQQAGYQSIRLGTMRDAASGCYSLLMVRQLANKSQ | not soluble |
| MAPKDQAADMDYDQTKKMVVDILKTDDGKKAIKELLNDDAMNEALVIDQDAIKGTIEKTLTSKKGEEFWKNIFEDTDFAEGFAKTLQTEHEKVIKKLMKDPDYQKMLMSVMQDPGMDKKYSQLAKSQEFRSYLEEVINETLSSPLYKKQFEDELKKAAKDTAKESELEHHHHHH | soluble |
| MAPLLSLCMIVKNEAHQLRRCLQSVQPWVDEIIIVDTGSTDGTIAIACEFTPHVHAVAWQGDFAAARNAALAQATGEWVFYIDADEELVVTDAHWQDQLTAPGAHAINQWSLLRREQSSDRNWSEFWNVRFGRRFPDLHFAGALHEQLCYREREAVVGELQGVYLIHHNQQSQEQFLAKIRDRNIPILETMVQQGDRRLQNLVCLGDHYAACGDSDRSQAWYEQALEEIASAVEQGILPRETTWLRHLLFWVSYRAFEAKDYETAQYYLSYGLRFFDRYPPLLYVAGLFVFELGLPRGALPYFHRCLDLFEAGSYDRTEPFDRQWMTTQPAYSLGYTYMTLQERDRAIAYFQKTLKFNPDYPPAQMYLEQLLRASANQGLEHHHHHH | not soluble |
| MAPRDIRPGAEYGDIIEEAIVTCKVFLIVFSETSQISRWVRSELNIGFSSNKPIIPFRIDPTDLKGSMKLMLNDKHWLNAYPNPEEKFSELAAVILDLLQHPAVDTISPPGFQPASNVASADGSNAGAQGLFGKLLNQLFVKRRVKVTSDHAAEIFLNGERKGKLDAYETGNYSVSEDFYQLEVYSCEYGKKVKCEYSGSFSNSSTVIISVDMATAEKQYLMKAKNITSGQINDLGIIFLDEGKFEDAQECFLKAASMGEAAAAYNLGMMYHFGKGVEIDYDVAREYYEEAVKSDYPLALNNLGSIYYNGHGVRKDIAKSFPYFCRAAERGVESAQFTVATMLFYGQGVAVDKAKAKKWFQKAAAQGCKDSQNYLNSWVDDLEHHHHHH | soluble |
| MAQAFVDATWPQAAKAAQSLGVPAHFLVAQAALETGWGKSQIRNKDGTPSYNLFNIKAGSNWTGKVVEARTVEYENGQRKVRVERFRAYDSYEQAFQDYADLVGNSPRYAKVAGKTDGHAFARALQEGGYATDPSYADKLARVINGNALRQRLMASAASARGLEHHHHHH | soluble |
| MAQEFVNCKIQPGKVVVFIKPTCPYCRRAQEILSQLPIKQGLLEFVDITATNHTNEIQDYLQQLTGARTVPRVFIGKDCIGGCSDLVSLQQSGELLTRLKQIGALQ | soluble |
| MAQHHGHLGAVYDAAGPQEVAALYDRWAETYESEMARAGYRHPAIGVALLARHLPRGARPLLDAGAGTGLLGEWLEIVGYPEVEALDISAGMLEVARAKGIYARCHNLPLGAALPFRDGAFAGIISTGVFTTGHVGAEALPELLRICRPGGVIVLTVKESLWQGGFAVSLEAAVASGLEHHHHHH | not soluble |
